Measured values as given in patent publication US20140186363A1 (UNIVERSITY OF ZURICH, published 2014).

How the values were obtained:
MAGEA3 peptide no 15 [1] = target: T1, MAGEA3 peptide no 15; experiment: peptide ELISA (coated 20mer) [Figure 1]
T1 construct: also called MAGEA3 aa 141-160
T1 peptide: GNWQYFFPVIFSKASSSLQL
Protocol: (§1) 20mer peptides spanning the entire MAGEA3 protein with 10 aa overlaps shared by each adjacent peptide (Peptides&Elephants, Nuthetal, Germany) were used to coat Maxisorp ELISA plates (Nunc, Rochester, N.Y.). As control a 20mer peptide representing amino acids 40-21 from the NY-ESO-1 protein was used (rev). The numbering of amino acids of MAGEA3 is based on SEQ ID No:41.
(§2) Human recombinant antibody was used at a concentration of 1 μg/ml. Bound human antibody was detected using horseradish peroxidase-conjugated goat anti-human IgG Fc-gamma specific antibodies (Jackson ImmunoResearch, Europe Ltd., Cambridgeshire, UK).

MAGEA3 peptide no 18 = target: T2, MAGEA3 peptide no 18; experiment: peptide ELISA (coated 20mer) [Figure 1]
T2 construct: also called MAGEA3 aa 171-190
T2 peptide: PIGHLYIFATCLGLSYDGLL
Protocol: as §1, §2

MAGEA3 peptide no 21 [2] = target: T3, MAGEA3 peptide no 21; experiment: peptide ELISA (coated 20mer) [Figure 1]
T3 construct: also called MAGEA3 aa 201-220
T3 peptide: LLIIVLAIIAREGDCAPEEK
Protocol: as §1, §2

MAGEA3 peptide no 22 [3] = target: T4, MAGEA3 peptide no 22; experiment: peptide ELISA (coated 20mer) [Figure 1]
T4 construct: also called MAGEA3 aa 211-230
T4 peptide: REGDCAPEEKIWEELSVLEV
Protocol: as §1, §2

MAGEA3 peptide no 24 [4] = target: T5, MAGEA3 peptide no 24; experiment: peptide ELISA (coated 20mer) [Figure 1]
T5 construct: also called MAGEA3 aa 231-250
T5 peptide: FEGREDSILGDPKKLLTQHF
Protocol: as §1, §2

MAGEA3 peptide no 6 [5] = target: T6, MAGEA3 peptide no 6; experiment: peptide ELISA (coated 20mer) [Figure 1]
T6 construct: also called MAGEA3 aa 51-70
T6 peptide: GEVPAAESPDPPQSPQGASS
Protocol: as §1, §2

MAGEA3 peptide no 7 [6] = target: T7, MAGEA3 peptide no 7; experiment: peptide ELISA (coated 20mer) [Figure 1]
T7 construct: also called MAGEA3 aa 61-80
T7 peptide: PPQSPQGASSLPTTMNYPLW
Protocol: as §1, §2

MAGEA3 peptide no 8 = target: T8, MAGEA3 peptide no 8; experiment: peptide ELISA (coated 20mer) [Figure 1]
T8 construct: also called MAGEA3 aa 71-90
T8 peptide: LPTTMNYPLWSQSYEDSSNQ
Protocol: as §1, §2

MAGEA3 peptide no 9 [7] = target: T9, MAGEA3 peptide no 9; experiment: peptide ELISA (coated 20mer) [Figure 1]
T9 construct: also called MAGEA3 aa 81-100
T9 peptide: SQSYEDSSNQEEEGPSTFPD
Protocol: as §1, §2

MAGEA3 [8] = target: T10, MAGEA3 (human, UniProt P43357 1-314); experiment: ELISA, plate coated with recombinant MAGEA3, serial dilution of antibody [Figure 4]
T10 construct: also called recombinant MAGEA3; MAGEA3-protein

MAGEA3 peptide no 5 = target: T11, MAGEA3 peptide no 5; experiment: peptide ELISA (coated 20mer) [Figure 1]
T11 construct: also called MAGEA3 aa 41-60
T11 peptide: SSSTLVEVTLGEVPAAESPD
Protocol: as §1, §2

MAGEA3 [9] = target: T10, MAGEA3; experiment: ELISA, plate coated with recombinant MAGEA3, serial dilution of antibody [Figure 4]; remark: listed apart in the source
MAGEA3 peptide no 10 = target: T12, MAGEA3 peptide no 10; experiment: peptide ELISA (coated 20mer)
T12 construct: also called MAGEA3 aa 91-110
T12 peptide: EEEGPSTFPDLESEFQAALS
Protocol: as §1, §2

MAGEA3 peptide no 11 = target: T13, MAGEA3 peptide no 11; experiment: peptide ELISA (coated 20mer)
T13 construct: also called MAGEA3 aa 101-120
T13 peptide: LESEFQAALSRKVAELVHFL
Protocol: as §1, §2

MAGEA3 peptide no 12 = target: T14, MAGEA3 peptide no 12; experiment: peptide ELISA (coated 20mer)
T14 construct: also called MAGEA3 aa 111-130
T14 peptide: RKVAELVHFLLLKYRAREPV
Protocol: as §1, §2

MAGEA3 peptide no 14 = target: T15, MAGEA3 peptide no 14; experiment: peptide ELISA (coated 20mer)
T15 construct: also called MAGEA3 aa 131-150
T15 peptide: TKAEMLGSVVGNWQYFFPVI
Protocol: as §1, §2

MAGEA3 peptide no 15 [10] = target: T1, MAGEA3 peptide no 15; experiment: peptide ELISA (coated 20mer)
Protocol: as §1, §2

MAGEA3 peptide no 16 = target: T16, MAGEA3 peptide no 16; experiment: peptide ELISA (coated 20mer)
T16 construct: also called MAGEA3 aa 151-170
T16 peptide: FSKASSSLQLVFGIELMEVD
Protocol: as §1, §2

MAGEA3 peptide no 17 = target: T17, MAGEA3 peptide no 17; experiment: peptide ELISA (coated 20mer)
T17 construct: also called MAGEA3 aa 161-180
T17 peptide: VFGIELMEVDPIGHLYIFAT
Protocol: as §1, §2

MAGEA3 peptide no 21 [11] = target: T3, MAGEA3 peptide no 21; experiment: peptide ELISA (coated 20mer)
Protocol: as §1, §2

MAGEA3 peptide no 22 [12] = target: T4, MAGEA3 peptide no 22; experiment: peptide ELISA (coated 20mer)
Protocol: as §1, §2

MAGEA3 peptide no 24 [13] = target: T5, MAGEA3 peptide no 24; experiment: peptide ELISA (coated 20mer)
Protocol: as §1, §2

MAGEA3 peptide no 26 = target: T18, MAGEA3 peptide no 26; experiment: peptide ELISA (coated 20mer)
T18 construct: also called MAGEA3 aa 251-270
T18 peptide: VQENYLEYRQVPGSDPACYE
Protocol: as §1, §2

MAGEA3 peptide no 28 = target: T19, MAGEA3 peptide no 28; experiment: peptide ELISA (coated 20mer)
T19 construct: also called MAGEA3 aa 271-290
T19 peptide: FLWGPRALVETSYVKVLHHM
Protocol: as §1, §2

MAGEA3 peptide no 30 = target: T20, MAGEA3 peptide no 30; experiment: peptide ELISA (coated 20mer)
T20 construct: also called MAGEA3 aa 291-310
T20 peptide: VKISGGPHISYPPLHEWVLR
Protocol: as §1, §2

MAGEA3 peptide no 6 [14] = target: T6, MAGEA3 peptide no 6; experiment: peptide ELISA (coated 20mer)
Protocol: as §1, §2

MAGEA3 peptide no 7 [15] = target: T7, MAGEA3 peptide no 7; experiment: peptide ELISA (coated 20mer)
Protocol: as §1, §2

MAGEA3 peptide no 9 [16] = target: T9, MAGEA3 peptide no 9; experiment: peptide ELISA (coated 20mer)
Protocol: as §1, §2

MAGEA3 [17] = target: T10, MAGEA3; experiment: ELISA, plate coated with recombinant MAGEA3, serial dilution of antibody

B1: 102G10 (antibody, V domains shown)
VH: EVQLVESGGGLVKPGGSLRLSCAASGFTFSGNSMNWVRQAPGKGLEWVSSISSSSGYIYYADSVKGRFTVSRDNAKNSLYLQMNSLRAEDTAVYYCATWPVTTARVGYWGQGTLVTVSS
VL: QSVLTQPPSASGTPGQRVTISCSGSSSNIGSNYVYWHQQLPGTAPKLLIYRHDQRPSGVPDRFSGSKSGTSASLAISGLRSEDEADYYCAAWDDSLSAWVFGGGTKLTVL
notes: Patient-derived human antibody made recombinantly; also called human monoclonal antibody 102G10
binding result (MAGEA3 peptide no 15 [1]): no binding (tested: 1 µg/ml) | binding result (MAGEA3 peptide no 18): no binding (tested: 1 µg/ml) | binding result (MAGEA3 peptide no 21 [2]): no binding (tested: 1 µg/ml) | binding result (MAGEA3 peptide no 22 [3]): no binding (tested: 1 µg/ml) | binding result (MAGEA3 peptide no 24 [4]): no binding (tested: 1 µg/ml) | binding result (MAGEA3 peptide no 6 [5]): no binding (tested: 1 µg/ml) | binding result (MAGEA3 peptide no 7 [6]): no binding (tested: 1 µg/ml) | binding result (MAGEA3 peptide no 8): no binding (tested: 1 µg/ml) | binding result (MAGEA3 peptide no 9 [7]): no binding (tested: 1 µg/ml) | EC50 (MAGEA3 [8]): 0.034 nM

B2: 34G9 (antibody, V domains shown)
VH: EVQLEESGGDLVQPGGSLRLSCAASGFTFSHYWMHWVRQAPGKGLVWVSRINSDGSSTSYADSVKGRFTISRDNAKNTLYLQMNSLRAEDTAVYYCARIGSDGYNYDFWGQGTLVTVSS
VL: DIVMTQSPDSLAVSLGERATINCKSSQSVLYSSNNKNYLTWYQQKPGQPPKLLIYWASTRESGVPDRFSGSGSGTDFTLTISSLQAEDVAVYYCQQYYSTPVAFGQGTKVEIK
notes: Patient-derived human antibody made recombinantly; also called human monoclonal antibody 34G9
binding result (MAGEA3 peptide no 15 [1]): no binding (tested: 1 µg/ml) | binding result (MAGEA3 peptide no 18): no binding (tested: 1 µg/ml) | binding result (MAGEA3 peptide no 21 [2]): no binding (tested: 1 µg/ml) | binding result (MAGEA3 peptide no 22 [3]): no binding (tested: 1 µg/ml) | binding result (MAGEA3 peptide no 24 [4]): no binding (tested: 1 µg/ml) | binding result (MAGEA3 peptide no 5): no binding (tested: 1 µg/ml) | binding result (MAGEA3 peptide no 7 [6]): no binding (tested: 1 µg/ml) | binding result (MAGEA3 peptide no 8): no binding (tested: 1 µg/ml) | binding result (MAGEA3 peptide no 9 [7]): no binding (tested: 1 µg/ml) | EC50 (MAGEA3 [9]): 0.045 nM | EC50 (read off the curve) (MAGEA3 [9]): ~0.04 nM

B3: 32H2 (antibody, V domains shown)
VH: QVQLVESGGGVVQPGRSLRLSCAASGFTFSSNAMHWVRQAPGKGLEWVAVISHDGSNKYYADSVKGRFTISRDNSKNTLYLQMNSLRAEDTAVYYCARDGSGSYFNLDYWGQGTLVTVSS
VL: QSALTQPASVSGSPGQSITISCTGTSSDVGGYNYVSWYQQHPGKAPKLMIYEVSNRPSGVSNRFSGSKSGNTASLTISGLQAEDEADYYCSSYTSSSTLVFGTGTKVTVL
notes: Patient-derived human antibody made recombinantly; also called human monoclonal antibody 32H2
binding result (MAGEA3 peptide no 10): no binding (tested: 1 µg/ml) | binding result (MAGEA3 peptide no 11): no binding (tested: 1 µg/ml) | binding result (MAGEA3 peptide no 12): no binding (tested: 1 µg/ml) | binding result (MAGEA3 peptide no 14): no binding (tested: 1 µg/ml) | binding result (MAGEA3 peptide no 15 [10]): no binding (tested: 1 µg/ml) | binding result (MAGEA3 peptide no 16): no binding (tested: 1 µg/ml) | binding result (MAGEA3 peptide no 17): no binding (tested: 1 µg/ml) | binding result (MAGEA3 peptide no 21 [11]): no binding (tested: 1 µg/ml) | binding result (MAGEA3 peptide no 22 [12]): no binding (tested: 1 µg/ml) | binding result (MAGEA3 peptide no 24 [13]): no binding (tested: 1 µg/ml) | binding result (MAGEA3 peptide no 26): no binding (tested: 1 µg/ml) | binding result (MAGEA3 peptide no 28): no binding (tested: 1 µg/ml) | binding result (MAGEA3 peptide no 30): no binding (tested: 1 µg/ml) | binding result (MAGEA3 peptide no 6 [14]): no binding (tested: 1 µg/ml) | binding result (MAGEA3 peptide no 7 [15]): no binding (tested: 1 µg/ml) | binding result (MAGEA3 peptide no 9 [16]): no binding (tested: 1 µg/ml) | EC50 (MAGEA3 [17]): 0.033 nM | EC50 (read off the curve) (MAGEA3 [17]): ~0.03 nM
